Sequences and labels used below:
B1: library; numbered along this chain (parent)
chain: MEVVDPQQLGMFTEGELMSVGMDTFIHRIDSTEVIYQPRRKRAKLIGKYLMGDLLGEGSYGKVKEVLDSETLCRRAVKILKKKKLRRIPNGEANVKKEIQLLRRLRHKNVIQLVDVLYNEEKQKMYMVMEYCVCGMQEMLDSVPEKRFPVCQAHGYFCQLIDGLEYLHSQGIVHKDIKPGNLLLTTGGTLKISDLGVAEALHPFAADDTCRTSQGSPAFQPPEIANGLDTFSGFKVDIWSAGVTLYNITTGLYPFEGDNIYKLFENIGKGSYAIPGDCGPPLSDLLKGMLEYEPAKRFSIRQIRQHSWFRKKHPPAEAPVPIPPSPDTKDRWRSMTVVPYLEDLHGADEDEDLFDIEDDIIYTQDFTVPGQVPEEEASHNGQRRGLPKAVCMNGTEAAQLSTKSRAEGRAPNPARKACSASSKIRRLSACKQQ

± gives the uncertainty stated by the source.

Variants of B1 are the subject of this data set. The experiment in a line: STK11 functional score (HeLa growth suppression), rescaled enrichment; synonymous median = 1, nonsense median = 0 (normalised score). The following applies: with HeLa; variant type: missense. As for the experimental part:
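Deep mutational scan (TileSeq/POPCode codon randomisation) of full-length codon-optimised STK11 cDNA integrated at a Bxb1 landing pad (AAVS1) in HeLa cells. Restoring functional STK11 suppresses HeLa proliferation. Variant frequencies were measured by NGS before and after about two weeks of growth. The error-corrected enrichment log-ratio was rescaled so that synonymous median = 1 and nonsense median = 0, scores above 1 were compressed, and codon-level and three biological replicate scores were combined; error is the bootstrapped standard error. Scale: synonymous median = 1, nonsense median = 0; below 0.5 = damaging.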
Regarding MEVVDPQQLGMFTEGELMSVGMDTFIHRIDSTEVIYQPRRKRAKLIGKYLMGDLLGEGSYGYVKEVLDSETLCRRAVKILKKKKLRRIPNGEANVKKEIQLLRRLRHKNVIQLVDVLYNEEKQKMYMVMEYCVCGMQEMLDSVPEKRFPVCQAHGYFCQLIDGLEYLHSQGIVHKDIKPGNLLLTTGGTLKISDLGVAEALHPFAADDTCRTSQGSPAFQPPEIANGLDTFSGFKVDIWSAGVTLYNITTGLYPFEGDNIYKLFENIGKGSYAIPGDCGPPLSDLLKGMLEYEPAKRFSIRQIRQHSWFRKKHPPAEAPVPIPPSPDTKDRWRSMTVVPYLEDLHGADEDEDLFDIEDDIIYTQDFTVPGQVPEEEASHNGQRRGLPKAVCMNGTEAAQLSTKSRAEGRAPNPARKACSASSKIRRLSACKQQ [K62Y], the STK11 functional score stood at 1.31 ± 0.49.

With MEVVDPQQLGMFTEGELMSVGMDTFIHRIDSTEVIYQPRRKRAKLIGKYLMGDLLGEGSYGNVKEVLDSETLCRRAVKILKKKKLRRIPNGEANVKKEIQLLRRLRHKNVIQLVDVLYNEEKQKMYMVMEYCVCGMQEMLDSVPEKRFPVCQAHGYFCQLIDGLEYLHSQGIVHKDIKPGNLLLTTGGTLKISDLGVAEALHPFAADDTCRTSQGSPAFQPPEIANGLDTFSGFKVDIWSAGVTLYNITTGLYPFEGDNIYKLFENIGKGSYAIPGDCGPPLSDLLKGMLEYEPAKRFSIRQIRQHSWFRKKHPPAEAPVPIPPSPDTKDRWRSMTVVPYLEDLHGADEDEDLFDIEDDIIYTQDFTVPGQVPEEEASHNGQRRGLPKAVCMNGTEAAQLSTKSRAEGRAPNPARKACSASSKIRRLSACKQQ [K62N], the STK11 functional score is 1.6 ± 0.6.

Take MEVVDPQQLGMFTEGELMSVGMDTFIHRIDSTEVIYQPRRKRAKLIGKYLMGDLLGEGSYGTVKEVLDSETLCRRAVKILKKKKLRRIPNGEANVKKEIQLLRRLRHKNVIQLVDVLYNEEKQKMYMVMEYCVCGMQEMLDSVPEKRFPVCQAHGYFCQLIDGLEYLHSQGIVHKDIKPGNLLLTTGGTLKISDLGVAEALHPFAADDTCRTSQGSPAFQPPEIANGLDTFSGFKVDIWSAGVTLYNITTGLYPFEGDNIYKLFENIGKGSYAIPGDCGPPLSDLLKGMLEYEPAKRFSIRQIRQHSWFRKKHPPAEAPVPIPPSPDTKDRWRSMTVVPYLEDLHGADEDEDLFDIEDDIIYTQDFTVPGQVPEEEASHNGQRRGLPKAVCMNGTEAAQLSTKSRAEGRAPNPARKACSASSKIRRLSACKQQ [K62T]: the STK11 functional score was 1.7 ± 0.36.

Consider MEVVDPQQLGMFTEGELMSVGMDTFIHRIDSTEVIYQPRRKRAKLIGKYLMGDLLGEGSYGLVKEVLDSETLCRRAVKILKKKKLRRIPNGEANVKKEIQLLRRLRHKNVIQLVDVLYNEEKQKMYMVMEYCVCGMQEMLDSVPEKRFPVCQAHGYFCQLIDGLEYLHSQGIVHKDIKPGNLLLTTGGTLKISDLGVAEALHPFAADDTCRTSQGSPAFQPPEIANGLDTFSGFKVDIWSAGVTLYNITTGLYPFEGDNIYKLFENIGKGSYAIPGDCGPPLSDLLKGMLEYEPAKRFSIRQIRQHSWFRKKHPPAEAPVPIPPSPDTKDRWRSMTVVPYLEDLHGADEDEDLFDIEDDIIYTQDFTVPGQVPEEEASHNGQRRGLPKAVCMNGTEAAQLSTKSRAEGRAPNPARKACSASSKIRRLSACKQQ [K62L], for which the STK11 functional score came out at 1.35 ± 0.21.

Turning to MEVVDPQQLGMFTEGELMSVGMDTFIHRIDSTEVIYQPRRKRAKLIGKYLMGDLLGEGSYGSVKEVLDSETLCRRAVKILKKKKLRRIPNGEANVKKEIQLLRRLRHKNVIQLVDVLYNEEKQKMYMVMEYCVCGMQEMLDSVPEKRFPVCQAHGYFCQLIDGLEYLHSQGIVHKDIKPGNLLLTTGGTLKISDLGVAEALHPFAADDTCRTSQGSPAFQPPEIANGLDTFSGFKVDIWSAGVTLYNITTGLYPFEGDNIYKLFENIGKGSYAIPGDCGPPLSDLLKGMLEYEPAKRFSIRQIRQHSWFRKKHPPAEAPVPIPPSPDTKDRWRSMTVVPYLEDLHGADEDEDLFDIEDDIIYTQDFTVPGQVPEEEASHNGQRRGLPKAVCMNGTEAAQLSTKSRAEGRAPNPARKACSASSKIRRLSACKQQ [K62S], the STK11 functional score worked out at 1.39 ± 0.32.

As for MEVVDPQQLGMFTEGELMSVGMDTFIHRIDSTEVIYQPRRKRAKLIGKYLMGDLLGEGSYGWVKEVLDSETLCRRAVKILKKKKLRRIPNGEANVKKEIQLLRRLRHKNVIQLVDVLYNEEKQKMYMVMEYCVCGMQEMLDSVPEKRFPVCQAHGYFCQLIDGLEYLHSQGIVHKDIKPGNLLLTTGGTLKISDLGVAEALHPFAADDTCRTSQGSPAFQPPEIANGLDTFSGFKVDIWSAGVTLYNITTGLYPFEGDNIYKLFENIGKGSYAIPGDCGPPLSDLLKGMLEYEPAKRFSIRQIRQHSWFRKKHPPAEAPVPIPPSPDTKDRWRSMTVVPYLEDLHGADEDEDLFDIEDDIIYTQDFTVPGQVPEEEASHNGQRRGLPKAVCMNGTEAAQLSTKSRAEGRAPNPARKACSASSKIRRLSACKQQ [K62W], the STK11 functional score is 1.38 ± 0.43.

On to MEVVDPQQLGMFTEGELMSVGMDTFIHRIDSTEVIYQPRRKRAKLIGKYLMGDLLGEGSYGRVKEVLDSETLCRRAVKILKKKKLRRIPNGEANVKKEIQLLRRLRHKNVIQLVDVLYNEEKQKMYMVMEYCVCGMQEMLDSVPEKRFPVCQAHGYFCQLIDGLEYLHSQGIVHKDIKPGNLLLTTGGTLKISDLGVAEALHPFAADDTCRTSQGSPAFQPPEIANGLDTFSGFKVDIWSAGVTLYNITTGLYPFEGDNIYKLFENIGKGSYAIPGDCGPPLSDLLKGMLEYEPAKRFSIRQIRQHSWFRKKHPPAEAPVPIPPSPDTKDRWRSMTVVPYLEDLHGADEDEDLFDIEDDIIYTQDFTVPGQVPEEEASHNGQRRGLPKAVCMNGTEAAQLSTKSRAEGRAPNPARKACSASSKIRRLSACKQQ [K62R], for which the STK11 functional score came to 1.61 ± 0.36.

For the variant MEVVDPQQLGMFTEGELMSVGMDTFIHRIDSTEVIYQPRRKRAKLIGKYLMGDLLGEGSYGVVKEVLDSETLCRRAVKILKKKKLRRIPNGEANVKKEIQLLRRLRHKNVIQLVDVLYNEEKQKMYMVMEYCVCGMQEMLDSVPEKRFPVCQAHGYFCQLIDGLEYLHSQGIVHKDIKPGNLLLTTGGTLKISDLGVAEALHPFAADDTCRTSQGSPAFQPPEIANGLDTFSGFKVDIWSAGVTLYNITTGLYPFEGDNIYKLFENIGKGSYAIPGDCGPPLSDLLKGMLEYEPAKRFSIRQIRQHSWFRKKHPPAEAPVPIPPSPDTKDRWRSMTVVPYLEDLHGADEDEDLFDIEDDIIYTQDFTVPGQVPEEEASHNGQRRGLPKAVCMNGTEAAQLSTKSRAEGRAPNPARKACSASSKIRRLSACKQQ [K62V], the STK11 functional score turned out to be 1.61 ± 0.2.

As to MEVVDPQQLGMFTEGELMSVGMDTFIHRIDSTEVIYQPRRKRAKLIGKYLMGDLLGEGSYGIVKEVLDSETLCRRAVKILKKKKLRRIPNGEANVKKEIQLLRRLRHKNVIQLVDVLYNEEKQKMYMVMEYCVCGMQEMLDSVPEKRFPVCQAHGYFCQLIDGLEYLHSQGIVHKDIKPGNLLLTTGGTLKISDLGVAEALHPFAADDTCRTSQGSPAFQPPEIANGLDTFSGFKVDIWSAGVTLYNITTGLYPFEGDNIYKLFENIGKGSYAIPGDCGPPLSDLLKGMLEYEPAKRFSIRQIRQHSWFRKKHPPAEAPVPIPPSPDTKDRWRSMTVVPYLEDLHGADEDEDLFDIEDDIIYTQDFTVPGQVPEEEASHNGQRRGLPKAVCMNGTEAAQLSTKSRAEGRAPNPARKACSASSKIRRLSACKQQ [K62I], the STK11 functional score was determined as 1.35 ± 0.52.

Consider MEVVDPQQLGMFTEGELMSVGMDTFIHRIDSTEVIYQPRRKRAKLIGKYLMGDLLGEGSYGQVKEVLDSETLCRRAVKILKKKKLRRIPNGEANVKKEIQLLRRLRHKNVIQLVDVLYNEEKQKMYMVMEYCVCGMQEMLDSVPEKRFPVCQAHGYFCQLIDGLEYLHSQGIVHKDIKPGNLLLTTGGTLKISDLGVAEALHPFAADDTCRTSQGSPAFQPPEIANGLDTFSGFKVDIWSAGVTLYNITTGLYPFEGDNIYKLFENIGKGSYAIPGDCGPPLSDLLKGMLEYEPAKRFSIRQIRQHSWFRKKHPPAEAPVPIPPSPDTKDRWRSMTVVPYLEDLHGADEDEDLFDIEDDIIYTQDFTVPGQVPEEEASHNGQRRGLPKAVCMNGTEAAQLSTKSRAEGRAPNPARKACSASSKIRRLSACKQQ [K62Q], for which the STK11 functional score turned out to be 1.56 ± 0.21.

For the variant MEVVDPQQLGMFTEGELMSVGMDTFIHRIDSTEVIYQPRRKRAKLIGKYLMGDLLGEGSYGKDKEVLDSETLCRRAVKILKKKKLRRIPNGEANVKKEIQLLRRLRHKNVIQLVDVLYNEEKQKMYMVMEYCVCGMQEMLDSVPEKRFPVCQAHGYFCQLIDGLEYLHSQGIVHKDIKPGNLLLTTGGTLKISDLGVAEALHPFAADDTCRTSQGSPAFQPPEIANGLDTFSGFKVDIWSAGVTLYNITTGLYPFEGDNIYKLFENIGKGSYAIPGDCGPPLSDLLKGMLEYEPAKRFSIRQIRQHSWFRKKHPPAEAPVPIPPSPDTKDRWRSMTVVPYLEDLHGADEDEDLFDIEDDIIYTQDFTVPGQVPEEEASHNGQRRGLPKAVCMNGTEAAQLSTKSRAEGRAPNPARKACSASSKIRRLSACKQQ [V63D], the STK11 functional score is -0.044 ± 0.097.

Consider MEVVDPQQLGMFTEGELMSVGMDTFIHRIDSTEVIYQPRRKRAKLIGKYLMGDLLGEGSYGKGKEVLDSETLCRRAVKILKKKKLRRIPNGEANVKKEIQLLRRLRHKNVIQLVDVLYNEEKQKMYMVMEYCVCGMQEMLDSVPEKRFPVCQAHGYFCQLIDGLEYLHSQGIVHKDIKPGNLLLTTGGTLKISDLGVAEALHPFAADDTCRTSQGSPAFQPPEIANGLDTFSGFKVDIWSAGVTLYNITTGLYPFEGDNIYKLFENIGKGSYAIPGDCGPPLSDLLKGMLEYEPAKRFSIRQIRQHSWFRKKHPPAEAPVPIPPSPDTKDRWRSMTVVPYLEDLHGADEDEDLFDIEDDIIYTQDFTVPGQVPEEEASHNGQRRGLPKAVCMNGTEAAQLSTKSRAEGRAPNPARKACSASSKIRRLSACKQQ [V63G], for which the STK11 functional score turned out to be 0.711 ± 0.21.

Turning to MEVVDPQQLGMFTEGELMSVGMDTFIHRIDSTEVIYQPRRKRAKLIGKYLMGDLLGEGSYGKCKEVLDSETLCRRAVKILKKKKLRRIPNGEANVKKEIQLLRRLRHKNVIQLVDVLYNEEKQKMYMVMEYCVCGMQEMLDSVPEKRFPVCQAHGYFCQLIDGLEYLHSQGIVHKDIKPGNLLLTTGGTLKISDLGVAEALHPFAADDTCRTSQGSPAFQPPEIANGLDTFSGFKVDIWSAGVTLYNITTGLYPFEGDNIYKLFENIGKGSYAIPGDCGPPLSDLLKGMLEYEPAKRFSIRQIRQHSWFRKKHPPAEAPVPIPPSPDTKDRWRSMTVVPYLEDLHGADEDEDLFDIEDDIIYTQDFTVPGQVPEEEASHNGQRRGLPKAVCMNGTEAAQLSTKSRAEGRAPNPARKACSASSKIRRLSACKQQ [V63C], the STK11 functional score came to 1.4 ± 0.54.

Take MEVVDPQQLGMFTEGELMSVGMDTFIHRIDSTEVIYQPRRKRAKLIGKYLMGDLLGEGSYGKEKEVLDSETLCRRAVKILKKKKLRRIPNGEANVKKEIQLLRRLRHKNVIQLVDVLYNEEKQKMYMVMEYCVCGMQEMLDSVPEKRFPVCQAHGYFCQLIDGLEYLHSQGIVHKDIKPGNLLLTTGGTLKISDLGVAEALHPFAADDTCRTSQGSPAFQPPEIANGLDTFSGFKVDIWSAGVTLYNITTGLYPFEGDNIYKLFENIGKGSYAIPGDCGPPLSDLLKGMLEYEPAKRFSIRQIRQHSWFRKKHPPAEAPVPIPPSPDTKDRWRSMTVVPYLEDLHGADEDEDLFDIEDDIIYTQDFTVPGQVPEEEASHNGQRRGLPKAVCMNGTEAAQLSTKSRAEGRAPNPARKACSASSKIRRLSACKQQ [V63E]: the STK11 functional score came to 0.189 ± 0.41.

These data come from the supplement of paper PMC12338614.
